Experiment: label from the status in PepcDB records

Row | Sequence | protein production
1 | MRKTPSHTEKKMVYSIRSLKNGTGSVLIGASLVLLAMATPTISSDESTPTTNEPNNRNTTTLAQPLTDTAAGSGKNESDISSPGNANASLEKTEEKPAASPADPAPQTGQDRSSEPTTSTSPVTTETKAEEPIEDNYFRIHVKKLPEENKDAQGLWTWDDVEKPSENWPNGALSFKDAKKDDYGYYLDVKLKGEQAKKISFLINNTAGKNLTGDKSVEKLVPKMNEAWLDQDYKVFSYEPQPAGTVRVNYYRTDGNYDKKSLWYWGDVKNPSSAQWPDGTDFTATGKYGRYIDIPLNEAAREFGFLLLDESKQGDDVKIRKENYKFTDLKNHSQIFLKDDDESIYTNPYYVHDIRMTGAQHVGTSSIESSFSTLVGAKKEDILKHSNITNHLGNKVTITDVAIDEAGKKVTYSGDFSDTKHPYTVSYNSDQFTTKTSWRLKDETYSYDGKLGADLKEEGKQVDLTLWSPSADKVSVVVYDKNDPDKVVGTVALEKGERGTWKQTLDSTNKLGITDFTGYYYQYQIERQGKTVLALDPYAKSLAAWNSDDSKIDDAHKVAKAAFVDPAKLGPQDLTYGKIHNFKTREDAVIYEAHVRDFTSDPAIAKDLTKPFGTFEAFIEKLDYLKDLGVTHIQLLPVLSYYFVNELKNHERLSDYASSNSNYNWGYDPQNYFSLTGMYSSDPKNPEKRIAEFKNLINEIHKRGMGAILDVVYNHTAKVDLFEDLEPNYYHFMDADGTPRTSFGGGRLGTTHHMTKRLLIDSIKYLVDTYKVDGFRFDMMGDHDAASIEEAYKAARALNPNLIMLGEGWRTYAGDENMPTKAADQDWMKHTDTVAVFSDDIRNNLKSGYPNEGQPAFITGGKRDVNTIFKNLIAQPTNFEADSPGDVIQYIAAHDNLTLFDIIAQSIKKDPSKAENYAEIHRRLRLGNLMVLTAQGTPFIHSGQEYGRTKQFRDPAYKTPVAEDKVPNKSHLLRDKDGNPFDYPYFIHDSYDSSDAVNKFDWTKATDGKAYPENVKSRDYMKGLIALRQSTDAFRLKSLQDIKDRVHLITVPGQNGVEKEDVVIGYQITAPNGDIYAVFVNADEKAREFNLGTAFAHLRNAEVLADENQAGPVGIANPKGLEWTEKGLKLNALTATVLRVSQNGTSHESTAEEKPDSTPSKPEHQNEASHPAHQDPAPEARPDSTKPDAKVADAENKPSQATADSQAEQPAQEAQASSVKEAVRNESVENSSKENIPATPDKQAELPNTGIKNENKLLFAGISLLALLGLGFLLKNKKEN | failed
2 | MKIVIIGGFLGGGKTTVLNHLLAESLKESLKPAVIMNEFGKMSVDGALVSEDIPLSELTEGCICCAMKADVSEQLHQLYLKEQPDIVFIECSGIAEPVSVLDACLTPILAPFTTITHMIGVIDASMYKHIKSFPKDIQGLFYEQLAYCSVLFVNKIDSADVETTSKLLKDLEVINPEADIQVGMHGSVTLPISVRQMTATSDNKHESLHKTINHQFVQSPVTCTKAEFIKRLACLPSHIYRLKGFMTFEDTTHTYLIQFTQGQYELTPVAFSKKVPEYLVLIGKGISKEDYQCLEQLEHHHHHH | failed
3 | MSVTFSYLAETDYPVFTLGGSTADAARRLAASGCACAPVLDGERYLGMVHLSRLLEGRKGWPTVKEKLGEELLETVRSYRPGEQLFDNLISVAAAKCSVVPLADEDGRYEGVVSRKRILGFLAERIHSGEGGLTMEIEVPPTGAKLSEIIETIEKNDASILSFTSWTTGEGRIIFFRVATHDFFRLVRNMENYGYLIRYHSAFPNAGYDELREKALEFIHYMDM | not failed
4 | MGVATMVTDKYQKCIDACNRCSQACYECFKACLNEPDVNARRTCISILFECAQMCQMSSALMSMDAQFAIDHCKLCSVICDKCAQECSMFQDPHCQKCANECRTCSNECRMMSGMLEHHHHHH | not failed
5 | MKIMTKTLNRTTLGLALGLASSQLLAAGFALNEQSISGMGTGFAGRSSSADDASTVFGNPAGMSRIKREQISVGAAAVIAKTDIDNGRGTFGGSNDGDMVPVVGVPMGYYVKPIDDHWAFGLGVYVPFGLVTDYEKGFAGRYWGDKSHVQIVTFQPTVSYAFNDKVSIGFGPTINRIDGELTSATLNAATPGRNDGKVKIEGDDTAIGFNAGILVQATDTTRLGLTYHSKVDYKLKGKTKIEGSGFGPFGGQKYDASLDISTPESVDFSITQQLDENWTVYAGSTWTRWSRLQDITVNNDGVPALLGGSAGPIGTITEEQNWHDTWAHAIGASYKVNKEWTLRTGFSVDQSPTNNVNRSPRIPTGDRKIISFGAGWSPTDDLTIDVAYSYLREDETKIRDSSATKGSYSADYRNTAHGLGTSVTYRF | failed
6 | MKQLLEFIPLILFFAVYKLVGVQAAAITLVLATILQLILVRILFKKLETSQWIVGLSVIIFGILTAYFDDLAFLKWKVTIINGLFAAVLLISQYVFHKPVVKMLLAKELSLPTQVWNRLNLGWAIFFIICMLINIIISQLFSDDTWATFKTFGFTGLSLVAVIITGIYLYPYIKKLENNNEQK | failed
7 | MSLGLDYEPSHLMFLVTVLDDRDGEVLGDAIQKLIEREEVLACHAVPCVTKKNRPGHVLVVLVDGGEDPDRVAEDVARDIMVLTGSTGVDRFDADGVYSVPSRFEDVRVVYGEREWRVSVKIAETEEGEVVTVKAEFDECREIGEETGIPPREVKAMVEAAARVGGWVDLKEREIKVQEGHHHHHH | not failed
8 | MLELLYTALLYLIQPLIWIRLWVRGRKAPAYRKRWGERYGFYRRPLKPGGIMLHSVSVGETLAAIPLVRALRHRYPDLPITVTTMTPTGSERVQSAFGNDVQHVYLPYDLPDALNRFLNKIDPKLVLIMETELWPNLIAALHKRHIPLVIANARLSARSAAGYAKLGKFVRTLLRRITLIAAQNEEDGERFVALGAKNNQVTVTGSLKFDISVTPQLAAKAVTLRRQWAPHRPVWIATSTHDGEESIVIAAHQALLHQFPNLLLILVPRHPERFPDAINLVRQAGLSYITRSSGEVPSASTQVVVGDTMGELMLLYGIADLAFVGGSLVERGGHNPLEAAAHAIPVLMGPHTFNFKDICARLDQASGLITITDAATLAKEVSSLLTDADYRNFYGRHAVEVLYQNQGALQRLLQLLEPYLPPKTHLEHHHHHH | failed
9 | MTRNDSGDLISRNDSTNHMNTTQPQKMLPEATFSDRMLEIGIKYKKQLTALVVVICLAAGGTLFWMQKTKVDEVQASLALAKITPWIEMGDVNKAVNGEGSIKGLNSIIKTWGGTPSGKTARLYMAYILLNSGKPDDALSIYKGFSSDNKDLQASALAGAAACHVQKKAFAEAAPEYEKASETAENETLKSMYLTKAAESYSAAGQADKAAKLYDQVIKTWPATSSAGMAQRALLRLAGAGVQIPQI | failed
10 | METESIKLDVQVTTTSQDPSLGLLSTVIITLDRDLEEYDENVDSIKSLGSYPDSSTPDESLIILKLPTSEPDYIYLTLRSKLKDHLHDHVLSEEIADQIFEAQLGTQSIDQFPFQQPLFMLVSVKLTQKLYTYAPCNASPLATDLTKRAK | failed
11 | MYIVIAGGGEMGGELARALEKTHDVVVIDRNPQARERFASWDVKVVVGGATDPDTLREAGVDRADLFVASTDSDEINLLASLLAKGLGAKEAFCFVGKGGYVEVLTDPRTAEILGTRIDRVLWPQRAMAREIVEVILVPWAVDTEVLAGGRLRFVEYRVKEGGEYVHRLLSGEKWPEGVLLAGVVREGTFLSFAHPEFPELILEPGDKLLFVATQKAFSELAAYFTEGPGVRRVMVIGGGNVGFMVAQGLLKRRVEVVIVERNAERCQWLSEELPGALVIQGDGTDIELLEAEGMAEADAVVAVTDHDEKNLLASLLAKQMGVRKVITRVSRSETRRLFEQVGIDLALTPRQAAVREVLDWIGPENVEHIATLEESIEVLEVLVSEGAAPKALRDLVRPDAVPVALERDHRIFLYEEGLGLLPGDRLYLVAAREVADEVLAPFFPE | failed
12 | MSIIAFLSYVIMTSITPGPSNILMMNEAQRFGFTGSWRFSSGILAGFAVLGILSGAFTISLYNWIPVVEPYFKLAGACYLIYLALQVGFTKNKKQDSTEARSSFISGFIFQLINIKSILFFLTVMSAFVLPFNHSLKSTIYYLALAIVLGWLALLLWSGFGSVFKRVFAKHDRVFRVLMCLLLMYSAVSIFR | failed
13 | MSLSKKIAVIGECMIELSEKGADVKRGFGGDTLNTSVYIARQVDPAALTVHYVTALGTDSFSQQMLDAWHGENVDTSLTQRMENRLPGLYYIETDSTGERTFYYWRNEAAAKFWLASEQSAAICEELANFDYLYLSGISLAILSPTSREKLLSLLRECRAKGGKVIFDNNYRPRLWASKEETQQVYQQMLECTDIAFLTLDDEDALWGQQPVEDVIARTHNAGVKEVVVKRGADSCLVSIAGEALVDVPAVKLPKEKVIDTTAAGDSFSAGYLAVRLTGGSAENAAKRGHLTASTVIQYRGAIIPREAMPAEGHHHHHH | not failed
14 | MLTHYAALRASDRETFLIIELGGLGGRMGLVFVVMIVVLLYAPVHVPTYVGTLLGLLFVSIAFEIWMIVRRMRQDGLMARD | failed

Source: a protein production outcome set (Wang et al. 2014)
